Assay results from the supplement of paper PMC11780869.

Test system: Bacillus subtilis
Experiment: cleaved RNA product abundance (RNA/gDNA barcode ratio) relative to median wild-type variant (ratio to wild type); higher = more accumulation of the downstream cleavage product
Procedure, shortened: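 Cleaved product abundance for each construct is its RNA-to-gDNA barcode ratio, scaled to the median construct carrying the unmutated site. Cleaved RNA was isolated on a gel, reverse transcribed and barcode-sequenced, with genomic DNA barcodes sequenced alongside and UMIs collapsed. The reporters were truncated aprE or tetM mRNAs with barcoded, mutagenized RNase Y cleavage-site windows integrated into the B. subtilis chromosome, and cultures grew in LB at 37°C from OD600 0.0003 to 0.3.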

[1] = experiment (reporter, strain, medium): exp 2b: truncated aprE reporter, strain BJT200, cleavage site: cggR-gapA (positions -7 to +36 mutated)
[2] = experiment (reporter, strain, medium): exp 4a: truncated aprE reporter, strain BJT201 with 2% xylose (RNase J1 expressed), cleavage site: cggR-gapA (positions -7 to +36 mutated)
[3] = experiment (reporter, strain, medium): exp 8a: truncated aprE reporter, strain BJT201 with 2% xylose (RNase J1 expressed), cleavage site: glnRA (positions -5 to +31 mutated)

| Sequence | cleaved RNA product abundance [1] | cleaved RNA product abundance [2] | cleaved RNA product abundance [3] |
| --- | --- | --- | --- |
| ACAGACGAAGGAGCCGCTAAGAAGATATTAAGGGATGAATAATCCCTCAATATAAATATCTCTCACTTATTTAAA | 0.625 |  |  |
| ACAGACGAAGGAGCCGCAAAGAAGTTATTAAGGGATGTATAATCCCTCAAAATAAATATCTCTCACTTATTTAAA | 0.267 | 0.344 |  |
| CGACATGTCCCGCTTCTTTCATTAATCCGTTAGCAACTGTTTTGCTATATTGATTTACCTTTTAAGAGGAGGAAT |  |  | 0.263 |
| ACAGACGAAGGAGCCGCAAAGAAGTAATTAAGGGATGAATGATCCCTCAATATAAATATCTCTCACTTATTTAAA | 0.134 |  |  |
| ACAGACGAAGGAGCCGCAAAGAAGTTATTAAGGGATGAATAATCCTTCAATATAAATTTCTCTCACTTATTTAAA |  | 0.346 |  |
| CGACATGTCCCGCTTCTTTCATTAATCCGTTAGCAACTGTTTTCCTATATACGTTTACCTTTTAAGAGGAGGAAT |  |  | 0.26 |
| CGACATGTCCCGCTTCTTTCATTAAACCGTTAGCAACTGTCTTGCTATATACATTTACCTTTTAAGAGGAGGAAT |  |  | 0.759 |
| ACAGACGAAGGAGCCGCAAAGAAGTTATTTAGGCATGAATAATCCCTCAATATAAATATCTCTCACTTATTTAAA | 0.0926 | 0.135 |  |
| ACAGACGAAGGAGCCGCTAAGAAGTTGTTAAGGGATGAATAATCCCTCAATATAAATATCTCTCACTTATTTAAA |  | 0.503 |  |
| ACAGACGAAGGAGCCGCAAAGAAGTTATTAAGGGATGAAGAATCCCTCCATATAAATATCTCTCACTTATTTAAA |  | 0.273 |  |
| CGACATGTCCCGCTTCTTTCATTAATCCGTCAGCAACTGTTTTGCTATATTCATTTACCTTTTAAGAGGAGGAAT |  |  | 0.112 |
| CGACATGTCCCGCTTCTTTCATTAATCAGTGAGCAACTGTTTTGCTATATACATTTACCTTTTAAGAGGAGGAAT |  |  | 0.37 |
| CGACATGTCCCGCTTCTTTCATTAATCCGTTAGCAACTGTTTTGCAATATACATTTCCCTTTTAAGAGGAGGAAT |  |  | 0.589 |
| ACAGACGAAGGAGCCGCAAAGAAGTTATTAAGGAATGAATAGTCCCTCAATATAAATATCTCTCACTTATTTAAA | 0.101 | 0.114 |  |
| CGACATGTCCCGCTTCTTTCATTAATCCGTTAGCAACCCTTTTGCTATATACATTTACCTTTTAAGAGGAGGAAT |  |  | 0.451 |
| ACAGACGAAGGAGCCGCAAAGAAATTATTAAGGGATGAATGATCCCTCAATATAAATATCTCTCACTTATTTAAA |  | 0.661 |  |

| Sequence | cleaved RNA product abundance [1] | cleaved RNA product abundance [2] | cleaved RNA product abundance [3] |
| --- | --- | --- | --- |
| ACAGACGAAGGAGCCGCTAAGAAGTTATTAAGGTATAAATAATCCCTCAATATAAATATCTCTCACTTATTTAAA |  | 0.0621 |  |
| ACAGACGAAGGAGCCGCAAAGAATTTATTAAGGGATGAATAATCCCACAATATAAATATCTCTCACTTATTTAAA |  | 0.259 |  |
| CGACATGTCCCGCTTCTTTCATTAATCCGTTAGCAACTGTTTTGCTCTATACATTTACCTTTTAAGAGGAGGAAT |  |  | 0.265 |
| ACAGACGAAGGAGCCGCAAAGAGGTTATTAAGGGATGAATAATCCCTAAATATAAATATCTCTCACTTATTTAAA |  | 0.386 |  |
| CGACATGTCCCGCTTCTTTCATTAATCCGTTAGCAACTGTTATGCTATATACATTTACTTTTTAAGAGGAGGAAT |  |  | 1.33 |
| ACAGACGAAGGAGCCGCGAAGAAGTTATTAAGGGATGAATAATCCCACAATATAAATATCTCTCACTTATTTAAA | 0.17 | 0.227 |  |
| ACAGACGAAGGAGCCGCAAAGAAGTTATTAAGGGGTGAATAATCCTTCAATATAAATATCTCTCACTTATTTAAA |  | 0.266 |  |
| ACAGACGAAGGAGCCGCAAAGAAGTTATTAAGGGATGAATAATCCCTCATTATAAATCTCTCTCACTTATTTAAA | 0.236 |  |  |
| CGACATGTCCCGCTTCTTTCATTAATCCGATAGCAAATGTTTTGCTATATACATTTACCTTTTAAGAGGAGGAAT |  |  | 0.41 |
| CGACATGTCCCGCTTCTTTCATTATTCCGTTATCAACTGTTTTGCTATACACATTTACCTTTTAAGAGGAGGAAT |  |  | 0.188 |
| ACAGACGAAGGAGCCGCAAAGAAGTTATTAAGGGATAAATAATCCATCAATATAAATATCTCTCACTTATTTAAA |  | 0.195 |  |
| ACAGACGAAGGAGCCGCAAAGAAGATATTAAGGGATGTATAATCCCTCAATATAAATATCTCTCACTTATTTAAA |  | 0.603 |  |
| ACAGACGAAGGAGCCGCAAAGAAGTTATAAAGGGATGAATAATCCCTCAATAAAAATATCTCTCACTTATTTAAA | 0.125 | 0.0461 |  |
| CGACATGTCCCGCTTCTTTCATTAATCCGTTAGCAACTTGTTTTGCTATATACATTTACCTTTTAAGAGGAGGAA |  |  | 1.01 |
| ACAGACGAAGGAGCCGCAAAGAAGTTATGAAGGGATGAATAATCCCTCAATATAGATATCTCTCACTTATTTAAA |  | 0.446 |  |
| ACAGACGAAGGAGCCGCAAAGAAATTATTAAGGGATGAATAATCCATCAATATAAATATCTCTCACTTATTTAAA | 0.163 | 0.201 |  |
